Where a chain is given by its changes, count along the chain named.
T1: cynomolgus monkey C16orf54 (cynomolgus monkey (Macaca fascicularis), UniProt Q6UWD8 1-224 (human entry))
T1 construct: also called cyno C16orf54; cyno-C16orf54
T1 chain: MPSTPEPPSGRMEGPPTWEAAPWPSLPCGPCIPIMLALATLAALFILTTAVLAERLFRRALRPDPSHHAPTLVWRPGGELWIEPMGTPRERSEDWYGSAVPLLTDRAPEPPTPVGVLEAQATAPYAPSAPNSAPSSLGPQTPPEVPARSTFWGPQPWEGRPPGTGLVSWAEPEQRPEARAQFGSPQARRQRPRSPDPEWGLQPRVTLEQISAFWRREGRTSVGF

T2: human C16orf54 (human, UniProt Q6UWD8 1-224)
T2 construct: also called huC16orf54; hC16orf54
T2 sequence: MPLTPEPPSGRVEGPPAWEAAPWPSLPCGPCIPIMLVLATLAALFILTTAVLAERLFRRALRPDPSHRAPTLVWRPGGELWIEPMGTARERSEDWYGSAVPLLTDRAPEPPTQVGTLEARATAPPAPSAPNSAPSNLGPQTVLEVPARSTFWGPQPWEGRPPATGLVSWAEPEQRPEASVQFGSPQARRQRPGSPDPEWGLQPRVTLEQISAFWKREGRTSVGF

T3: extracellular domain of c16orf54 (amino acids 1-31) fused to human IgG1 Fc (Homo sapiens, UniProt Q6UWD8)
T3 construct: the extracellular domain of c16orf54 (amino acids 1-31) either N terminal or C-terminal to a human IgG1 Fc domain; made in house; host or cells: 293 T cells, transient; Protein A purification
T3 sequence (Q6UWD8 1-31 limits assumed): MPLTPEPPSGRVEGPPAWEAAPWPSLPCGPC

B1: R29-7-1C (antibody, V domains shown)
VH: DVQLQESGPGLVKPSQSLSLTCTVTGYSITSDYAWNWIRQFPGNKLEWMGYISYSGSIRYNPSLKSRISITRDTSKNQFFLQLNSVTTEDTATYYCAREKYDNYYYAMDYWGQGTSVTVSS
VL: DIVMSQSPSSLAVSVGEKVTLSCKSSQNLLYSTNQKNYLAWYQQKPGQSPKLLIYWASTRESGVPDRFTGSGSGTDFTLTISSVKAEDLAVYYCQQYYSYRTFGGGTKLEIK
notes: Murine monoclonal IgG2a from a hybridoma
B2: R29-7-1C: murine anti-C16orf54 monoclonal antibody, IgG2a; VH SEQ ID NO: 8, VL SEQ ID NO: 10 (antibody, V domains shown)
VH: MRVLILLWLFTAFPGILSDVQLQESGPGLVKPSQSLSLTCTVTGYSITSDYAWNWIRQFPGNKLEWMGYISYSGSIRYNPSLKSRISITRDTSKNQFFLQLNSVTTEDTATYYCAREKYDNYYYAMDYWGQGTSVTVSS
VL: MDSQAQVLMLLLLWVSGTCGDIVMSQSPSSLAVSVGEKVTLSCKSSQNLLYSTNQKNYLAWYQQKPGQSPKLLIYWASTRESGVPDRFTGSGSGTDFTLTISSVKAEDLAVYYCQQYYSYRTFGGGTKLEIK
modifications: R29-7-1C heavy chain variable region; R29-7-1C light chain variable region
B3: R29-67-7A: murine anti-C16orf54 monoclonal antibody, IgG2a; VH SEQ ID NO: 12, VL SEQ ID NO: 14 (antibody, V domains shown)
VH: B2 VH with S71N, S75R, I76T, K83N, I88L, K94T, K118N, N121Y, Y122E, Y123F
VL: B2 VL with D2E, L41M, T53S, S119I
modifications: R29-67-7A heavy chain variable region; R29-67-7A light chain variable region

Columns and labels:
[1] = target: T1, cynomolgus monkey C16orf54; experiment: flow cytometry, 10 ug/ml antibody, F279-cyno-C16orf54 cells
Protocol: Anti-C16orf54 antibodies which bound to human C16orf54 were tested for their reactivity with human C16orf54 and their crossreactivity with C16orf54 from cynomolgous monkeys (cyno C16orf54) using flow cytometry. Sarcoma cells transfected with and expressing human C16orf54 or cyno C16orf54 were washed with PBS with 0.1% BSA, incubated with FcX receptor blocking solution (BioLegend) for 15 minutes, incubated with 10 μg/ml of anti-C16orf54 antibody for 1 hour at 4° C., washed twice with PBS with 0.1% BSA, incubated with 20 μg/ml of R-Phycoerythrin-AffiniPure F(ab′)2 Fragment Goat Anti-Mouse IgG, Fcγ Fragment Specific (Jackson ImmunoResearch) for 30 minutes at 4° C., washed twice with PBS with 0.1% BSA, incubated with the viability dye TO-PRO-3 iodide (Life Technologies), and immediately analyzed on a MACSQuant Analyzer instrument (Miltenyi). For each cell line and anti-C16orf54 antibody, a fold change was derived by dividing the median fluorescence intensity for Phycoerythrin in the live cell population for the anti-C16orf54 antibody by the median fluorescence intensity for Phycoerythrin in the live cell population for the IgG isotype control antibody. A number of anti-C16orf54 antibodies (see, e.g., R29-8-57B, R29-8-136C, R29-7-1C, R29-67-7A, R29-67-4A, and R29-7-2A) bind human C16orf54 and also bind (e.g., are crossreactive with) cyno C16orf54.

human C16orf54 [2] = target: T2, human C16orf54; experiment: flow cytometry titration, KG1 cells (endogenous human C16orf54)
human C16orf54 [3] = target: T2, human C16orf54; experiment: flow cytometry, OCI-AML3 leukemia cells (endogenous C16orf54), 3 repeats
human C16orf54 [4] = target: T2, human C16orf54; experiment: flow cytometry, Granta-519 lymphoma cells (endogenous C16orf54), 1 repeat
human C16orf54 [5] = target: T2, human C16orf54; experiment: flow cytometry, BxPC-3 pancreatic cancer cells (endogenous C16orf54), 3 repeats
human C16orf54 [6] = target: T2, human C16orf54; experiment: flow cytometry, SW1990 pancreatic cancer cells (endogenous C16orf54), 3 repeats
human C16orf54 [7] = target: T2, human C16orf54; experiment: cell ELISA on huC16orf54-expressing sarcoma cells, purified antibody in 1:4 eight-point dilution from 200 nM, 2 h at 4 C, anti-mouse IgG Fc HRP luminescence
Protocol: Purified anti-huC16orf54 monoclonal antibodies were also tested for binding by ELISA. huC16orf54-expressing sarcoma cells were incubated with an 1:4 eight-point dilution series starting with 200 nM of anti-huC16orf54 antibody for 2 hours at 4° C. After washing, the cells were incubated with a secondary antibody (Jackson Immunologicals Goat×IgG, Fc specific HRP—Product#115-035-071) and detected with SuperSignal® ELISA Pico Chemiluminescent substrate (Thermo Scientific—Product#37069). EC50 values were determined using Graphpad Prism® software. An isotype control, R22-4-26A, is also shown.

[8] = test system: human C16orf54 extracellular domain peptides; experiment: C16orf54 peptide ELISA, human extracellular domain peptides; type: binding; settings: human, cyno, or mouse extracellular domain peptides, not told apart; 10 μg/ml antibody
Protocol: Anti-C16orf54 antibodies which bind to human C16orf54, including antibodies that are crossreactive with cyno C16orf54, were tested for their binding to various peptides derived from C16orf54 in a peptide ELISA. A 384-well high binding black microplate (Greiner) was incubated with 2 μg/ml of protein (human, cyno, or mouse extracellular domain peptides) for 16 hours, incubated for 1 hr with a blocking buffer (PBS with 5% Fetal Bovine Serum), washed four times with TBS with Tween, incubated for 1 hour with 10 μg/ml of anti-C16orf54 antibody, washed four times with TBS with Tween, incubated for 1 hour with 10 μg/ml of Peroxidase-AffiniPure Goat Anti-Mouse IgG, Fcγ Fragment Specific (Jackson ImmunoResearch), washed four times with TBS with Tween, and peroxidase was detected with a luminometer (Molecular Devices) upon addition of SuperSignal® ELISA Pico Chemiluminescent Substrate (Thermo Scientific). The luminescence signal was determined.

[9] = target: T3, extracellular domain of c16orf54 (amino acids 1-31) fused to human IgG1 Fc; experiment: C16orf54 peptide-Fc fusion protein ELISA; type: binding; settings: serial dilution of antibody; HRP-conjugated anti mouse secondary
Protocol: Anti-C16orf54 antibodies which bind to human C16orf54, including antibodies that are crossreactive with cyno C16orf54, were tested for their binding to various peptides derived from C16orf54 that were fused to human IgG (e.g., IgG1) constant regions to generate various peptide-Fc fusion proteins in an Fc-based ELISA. An exemplary Fc sequence comprises an IgG1 Hinge region sequence and IgG1 CH3 and […] domain sequences.
The fusion proteins were transiently expressed in 293 T cells. Protein was purified from the 293 expression supernatants by Protein A-based affinity purification. Exemplary C16 peptide-Fc fusion constructs that were made and purified are shown with their protein yield in Table 38. ELISA assays were performed by coating 384 well plates with the fusion proteins overnight at 4C. Antibodies were analyzed by serial dilution with concentrations ranging from 40 ug/mL to […]. Binding was detected with an HRP-conjugated anti mouse secondary antibody.

C16orf54 ECD peptides = experiment: Peptide crossblocking (Table 36); type: binding

Molecule | Median fold change relative to IgG control [1] [fold] | EC50 (human C16orf54 [2]) [nM] | Average MFI fold change relative to isotype control (human C16orf54 [3]) [fold] | Average MFI fold change relative to isotype control (human C16orf54 [4]) [fold] | Average MFI fold change relative to isotype control (human C16orf54 [5]) [fold] | Average MFI fold change relative to isotype control (human C16orf54 [6]) [fold] | EC50 (read off the curve) (human C16orf54 [7]) [nM] | binding to peptides derived from the extracellular domain of C16orf54 (peptide ELISA) [8] | binding to peptide-Fc fusion proteins (Fc-based ELISA) [9] | Peptide crossblocking (C16orf54 ECD peptides)
B1 | 53.7 | 0.3 | 3 | 3.8 | 7 | 1.9 | ~0.07 | – | – | –
B2 | – | – | – | – | – | – | – | bind to the various peptides derived from the extracellular domain (ECD) of C16orf54 | able to bind to the peptide-Fc fusion proteins | none
B3 | – | – | – | – | – | – | – | bind to the various peptides derived from the extracellular domain (ECD) of C16orf54 | able to bind to the peptide-Fc fusion proteins | aa1-31, aa1-15
